The source of these data is US12091776B2, “Protease activity profiling via programmable phage display of comprehensive proteome-scale peptide libraries” (THE JOHNS HOPKINS UNIVERSITY, priority 2019, dated 2024).

In experiment [1] the target is T1, Caspase-1 (Homo sapiens, UniProt P29466).
T1 construct: purchased BioVision
T1 sequence (P29466 120-297 limits assumed): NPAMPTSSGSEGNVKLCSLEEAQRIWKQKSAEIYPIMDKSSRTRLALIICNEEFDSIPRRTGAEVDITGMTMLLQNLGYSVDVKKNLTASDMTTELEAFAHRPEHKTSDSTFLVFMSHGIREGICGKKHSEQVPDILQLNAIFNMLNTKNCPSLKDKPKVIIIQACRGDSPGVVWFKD
T1 sequence (P29466 317-404 limits assumed): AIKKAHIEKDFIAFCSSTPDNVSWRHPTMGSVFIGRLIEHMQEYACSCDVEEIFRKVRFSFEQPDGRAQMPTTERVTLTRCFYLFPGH
The experiment in a line: SEPARATE assay: 56-amino acid mouse peptidome library digested with Caspase-1. To be noted: selected peptides, mouse library (56-aa tiles). It counts as biochemical. As for the experimental part:
(§1) Streptavidin-coupled magnetic beads (Dynabeads M-280 Streptavidin, ThermoFisher Scientific) were washed (TBS, pH 7.4, 0.01% NP40) and resuspended in binding buffer (TBS, pH 7.4, 0.001% NP40) containing 2E9 plaque forming units per 10 μl of bead slurry. End-over-end mixing at room temperature was performed for one hour. Phage-coated beads were washed three times with wash buffer and transferred into two protein LoBind Eppendorf tubes blocked with TBS, pH 7.4 containing 1% BSA.
Digestion occurred overnight at room temperature with end-over-end rotation. […] To remove any residual biotinylated phage that may have been nonspecifically released, the 150 μl supernatant of the quenched digest reaction is then incubated with a fresh 10 μl of slurry volume M280 streptavidin beads (pre-washed three times with wash buffer) in a LoBind Eppendorf tube blocked with TBS, pH 7.4 containing 1% BSA at room temperature for one hour with end-over-end rotation.
10 μl slurry volume of protein G magnetic dynabeads were washed in buffer (TBS, pH 7.4, 0.01% NP40) and then resuspended in 50 μl TBS, pH 7.4, 0.01% NP40 containing 4 μg of M2 FLAG antibody for thirty minutes at room temperature with end-over-end rotation. The 150 μl quenched digest reaction is added to the 10 μl FLAG-coated Protein G beads and incubated for 60 minutes at room temperature with end-over-end rotation to capture phage particles released at the protease digest step. Beads are rinsed once with 100 μl wash buffer and stored at −80° C. until PCR amplification.
Library PCR preparation, high-throughput DNA sequencing, and peptide read count data generation was performed as described previously.^44 Briefly, library peptide inserts are amplified by resuspending 10 μl of FLAG-coated Protein G beads in PCR1 master mix containing the T7-Pep2_PCR1_F forward primer ([…]) (SEQ ID NO:3) and a T7-SEPARATE vector specific reverse primer ([…]) (SEQ ID NO:4), which includes an adapter sequence for sample-specific barcoding and Illumina P7 adapter incorporation during a subsequent PCR2 reaction. The PCR2 amplicons are pooled and sequenced using an Illumina NextSeq instrument in standard output mode to obtain single-end 50 nucleotide reads. Dual indexed sample demultiplexing and clonal read count determination were performed using exact sequence matching. […] To calculate the normalization factor, 100 peptides were randomly selected from the mock digest conditions with a read count ranging between 10 and 40. The median read count value for these 100 peptides is calculated for each sample. The random peptide selection and median calculation is performed 20 times and the average of the 20 median values is calculated for each sample. Finally, the normalization factor is calculated by dividing the average median value for each sample by that for one of the mock digest conditions. Read counts are then converted to normalized read counts by dividing each sample's read count values by the normalization factor. Fold enrichments are calculated for each peptide by dividing their normalized read counts in the digest condition by the normalized read counts in the mock digest condition. The fold enrichments can be visualized in an MA plot by transforming the normalized read count data into a log ratio (M, on the y-axis) and a mean average (A, on the x-axis) between the digest and mock digest conditions.
The performance of the SEPARATE assay is expected to depend on protease-substrate requirements as well as biophysical features of the peptide library. The present inventors have verified by PCR and Sanger sequencing that 90% of the immobilized human library lacks in-frame mutations. […] To explore this further, a 56-amino acid mouse peptidome library (unpublished) was used in which both IL-1β and Gasdermin-D cleavage peptides are better represented. […] Mouse IL-1β and Gasdermin-D are highly similar to the human versions and can serve as substrates for human Caspase-1. […]

The target of the next experiment is T2, endogenous Caspase-1 (Homo sapiens, UniProt P29466).
T2 construct: endogenous in cells; host or cells: PMA-differentiated THP-1 cells
T2 sequence (P29466 120-404): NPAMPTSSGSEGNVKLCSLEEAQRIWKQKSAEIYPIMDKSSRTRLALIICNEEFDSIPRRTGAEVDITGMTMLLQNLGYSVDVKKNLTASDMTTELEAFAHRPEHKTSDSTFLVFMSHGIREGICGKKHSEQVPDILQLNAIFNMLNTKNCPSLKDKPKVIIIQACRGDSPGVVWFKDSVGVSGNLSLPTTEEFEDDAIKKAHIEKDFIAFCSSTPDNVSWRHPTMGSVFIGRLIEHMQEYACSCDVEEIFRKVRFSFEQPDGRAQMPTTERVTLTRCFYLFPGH
Description: In vitro stimulation of the inflammasome in THP-1 cells (Western blot). The format is cell-based. The settings on record: PMA differentiated THP-1 cells, LPS and Nigericin. On the procedure:
THP-1 cells were cultured in RPMI-1640 media with Glutamax (Gibco, ThermoFisher, Cat #61870127), supplemented with 10% FBS (Hyclone SH30071, GE Life Sciences), and 1× Antibiotic-Antimycotic (Gibco, ThermoFisher, Cat #15240062), referred to as complete RPMI. To differentiate THP-1 cells into macrophages, 1×10^6 THP-1 cells were added per well of a 6-well plate in complete RPMI medium containing 50 ng/ml Phorbol 12-myristate 13-acetate (PMA, diluted in RPMI medium from a 1 mg/ml PMA stock in DMSO, Millipore Sigma, Cat. No. P1585). After 48 hours when the cells become adherent, the medium with PMA was removed, cells washed in 1×PBS once, and fresh complete RPMI was added. Cells were allowed to rest for an additional 24 hours before inflammasome activation with LPS and Nigericin.
A 6-well plate of PMA differentiated THP-1 cells were treated with 0, 1 or 0.1 μg/ml LPS (Millipore Sigma, Cat. No. LPS25) for 3.5 hours. After 3.5 hours, cells were treated with 2.5 μM Nigericin for an additional 30 minutes to activate the inflammasome. Cells were washed in 1×PBS and lysed in 1× mammalian cell extraction buffer (BioVision, Cat. No. K269) containing 2 μM Dithiothreitol (DTT). Nuclei were spun down by centrifugation (10,000 rpm, 5 minutes, 4° C.) and the cleared supernatant was used to perform Western blots. […]
In general terms: In western blotting, separated proteins are transferred to a membrane and probed.

Experiment [2] has as its target T1, Caspase-1. The experiment in a line: SEPARATE assay: human peptidome library digest with Caspase-1. It counts as biochemical. To be noted: unstimulated THP-1 cell lysate supplemented with 0.1 units of recombinant Caspase-1. As for the experimental part:
as §1
Digestion occurred overnight at room temperature with end-over-end rotation. […]
Library PCR preparation, high-throughput DNA sequencing, and peptide read count data generation was performed as described previously.^44 Briefly, library peptide inserts are amplified by resuspending 10 μl of FLAG-coated Protein G beads in PCR1 master mix containing the T7-Pep2_PCR1_F forward primer ([…]) (SEQ ID NO:3) and a T7-SEPARATE vector specific reverse primer ([…]) (SEQ ID NO:4), which includes an adapter sequence for sample-specific barcoding and Illumina P7 adapter incorporation during a subsequent PCR2 reaction. The PCR2 amplicons are pooled and sequenced using an Illumina NextSeq instrument in standard output mode to obtain single-end 50 nucleotide reads. Dual indexed sample demultiplexing and clonal read count determination were performed using exact sequence matching. […]

Experiment [3] concerns the target T1, Caspase-1. The experiment in a line: HUWE1 cleavage assay using recombinant Caspase-1 in THP-1 lysate (Western blot). The format is biochemical. To be noted: recombinant Caspase-1 added to unstimulated THP-1 cell lysates; time-dependent. As for the experimental part: Recombinant Caspase-1 (rCaspase-1) was diluted to 0.1 U/μl in 1× mammalian cell extraction buffer containing 2 μM Dithiothreitol (DTT). This buffer preserves enzymatic activity of proteases. Unstimulated, PMA differentiated THP-1 cells were also lysed in 1× mammalian cell extraction buffer with 200 μl of buffer to lyse one well of a 6-well plate (˜1×10^6 cells). Protease digests were set up with 50 μl of lysate (˜250,000 cells).
30 μl of protein lysates were mixed with 10 μl of 4× NuPage LDS sample loading buffer (Thermo Fisher, Cat. No. NP0007, final concentration to 1×). 4-12% NuPage Bis-Tris gels (Thermo Fisher, Cat. No. NP0321) were loaded with 35 μl of each sample along with high molecular weight standards (HiMark protein ladder, Thermo Fisher, Cat. No. LC5699) and resolved in 1× NuPAGE™ MES SDS Running Buffer (Thermo Fisher, Cat. No. NP0002) at 150V for 50-60 minutes. After suitable resolution of proteins, the gels were transferred to a PVDF membrane by the ‘wet transfer’ method using 1× NuPage transfer buffer (Thermo Fisher, Cat. No. NP00061) overnight at 4° C., 50 mA constant current. After transfer is complete, the membranes were washed in 1× tris buffered saline containing 0.01% Tween-20 (TBS-T), blocked for 30 minutes with 5% milk in TBS-T and probed with primary antibodies and HRP conjugated secondary antibodies with TBS-T washing in between. […]

The target of another experiment is T3, Thrombin (Homo sapiens, UniProt P00734).
T3 construct: Thrombin (a serine protease); purchased SignalChem
Description: SEPARATE assay: human peptidome library digest with Thrombin. To be noted: human library, Thrombin. It counts as biochemical.

Description for Thrombin: The PCR2 amplicons are pooled and sequenced using an Illumina NextSeq instrument in standard output mode to obtain single-end 50 nucleotide reads. Dual indexed sample demultiplexing and clonal read count determination were performed using exact sequence matching. […] To calculate the normalization factor, 100 peptides were randomly selected from the mock digest conditions with a read count ranging between 10 and 40. The median read count value for these 100 peptides is calculated for each sample. The random peptide selection and median calculation is performed 20 times and the average of the 20 median values is calculated for each sample. Finally, the normalization factor is calculated by dividing the average median value for each sample by that for one of the mock digest conditions. […]

The substance “GSDMD 259-315: 56-amino acid mouse peptidome library peptide of Gasdermin-D (NVLAALCSIGKQLSLLSDGIDEEELIEAADFQGLYAEVKACSSELESLEMELRQQIL; UniProt Q9D8T2 259-315, looked up, fragment)” yielded a Caspase1 fold change in the experiment with Caspase-1 [1] of 6.78 fold.
Still for that read-out and setting: the result for “IL1B 0-56: 56-amino acid mouse peptidome library peptide of IL-1β (MATVPELNCEMPPFDSDENDLFFEVDGPQKMKGCFQTFDLGCPDESIQLQISQQHI; UniProt P10749 1-56, looked up, fragment)” reads 8.10 fold; that for “IL1B 75-131: 56-amino acid mouse peptidome library peptide of IL-1β (QLPVSFPWTFQDEDMSTFFSFIFEEEPILCDSWDDDDNLLVCDVPIRQLHYRLRDEQ; UniProt P10749 75-131, looked up, fragment)”, 8.80 fold.
Still for that read-out and setting: the value for “IL1B 74-130: 56-amino acid mouse peptidome library peptide of IL-1β (WQLPVSFPWTFQDEDMSTFFSFIFEEEPILCDSWDDDDNLLVCDVPIRQLHYRLRDE; UniProt P10749 74-130, looked up, fragment)” was 13.23 fold.
“GSDMD 222-278: 56-amino acid mouse peptidome library peptide of Gasdermin-D (LLIGSKWDILLVSDEKQRTFEPSSGDRKAVGQRHHGLNVLAALCSIGKQLSLLSDGI; UniProt Q9D8T2 222-278, looked up, fragment)” registered a Caspase1 fold change in the experiment with Caspase-1 [1] of 4.23 fold.
As for “HECT, UBA and WWE Domain Containing E3 Ubiquitin Protein Ligase 1 [HUWE1]”, in the experiment with endogenous Caspase-1, the “cleavage by endogenous Caspase-1 upon inflammasome activation (Western blot)” value is recorded as “cleavage”. For the same substance, the “enrichment in SEPARATE on a complex biological mixture” value with Caspase-1 [2] is “among the most significantly enriched targets”. Besides, in the experiment with Caspase-1 [3], the “cleavage of endogenous HUWE1 (Western blot)” value is on record as “robust cleavage”.
“HUWE1 2328-2384: 56-amino acid mouse peptidome library peptide of HUWE1 (VVIAGQPEVLSSQEMQVENELEDLIDELLERDGGSGNSTIIVSRSGEDESQEDVLMD; UniProt Q7TMY8 2328-2384, looked up, fragment)” registered a Caspase1 fold change with Caspase-1 [1] of 23.12 fold.
Turning to Fibrinogen, the “scoring in the SEPARATE assay” value at Thrombin is recorded as “did not score”.
Consider “HUWE1 2291-2347: 56-amino acid mouse peptidome library peptide of HUWE1 (QDPGEPGEAEVQEEDHDVTQTEVADGDIMDGEAETDSVVIAGQPEVLSSQEMQVENE; UniProt Q7TMY8 2291-2347, looked up, fragment)”, for which the Caspase1 fold change with Caspase-1 [1] is reported as 6.13 fold.
